Data on two molecules can be found in patent US20040053276A1 (published 2004).

[ ]: non-standard residue; d: D form. pGlu = O=C1CC[C@@H](C(=O)O)N1

B1: human DRL90h-FLAG fusion protein, 9.2 kDa molecule not cleaved at the furin cleavage site (other)
chain: SPILTEKQAKQLLRSRRQDRPSKPGFPDEPMREYMHHLLALEHRAEEQFLEHWLNPHCKPHCDRNRIHPVVDYKDDDDK
notes: Expressed in COS-7 cells from pDRL90h-FLAG; It was detected on Western blots after SDS-PAGE; also called human DRL90-FLAG fusion protein
B2: human DRL90h-FLAG fusion protein, 7.1 kDa molecule cleaved at the furin cleavage site (other)
chain: [pGlu]DRPSKPGFPDEPMREYMHHLLALEHRAEEQFLEHWLNPHCKPHCDRNRIHPVVDYKDDDDK
modifications: also: a pair of intramolecular disulfide bonds
notes: C-terminal processing product of the COS-7 DRL90h-FLAG fusion; The FLAG tail is inferred from detection and purification with anti-FLAG antibody; also called major component of the human DRL90 gene product

Series [1] deals with the molecule itself. Put plainly: non-reducing versus reducing SDS-PAGE and anti-FLAG Western blot; disulfide-linked dimer (approx. 21 kDa). The procedure:
(§1) Transfection was carried out using 1 µg/well of the pDRL90h-FLAG DNA constructed in Example 3 and Effectene (Qiagen). Twenty-four hours after the transfection, the medium was replaced with serum-free DMEM medium supplemented with 1 ml of 0.1 mM pABSF (Wako Purechemical Industries) and 0.05% CHAPS (Dojin Chemical). Then, the cells were cultured further for 48 hr. The culture supernatant was transferred into Eppendorf sample tubes and centrifuged. After removal of floating cells, the supernatant was concentrated to about 1/10 in volume with Centricon YM-3 ultrafiltration membrane (Millipore). An equal volume of Tricine SDS-PAGE sample buffer (TEFCO) was added to the resultant concentrated culture supernatant. With respect to the cells, they were washed in 1 ml of PBS (Gibco BRL) twice and then 500 l of Tricine SDS-PAGE sample buffer was added thereto. […] After blocking the nitrocellulose filter with PBS containing 0.1% Tween 20 and 50% Block Ace (Snow Brand Milk Products), human DRL90-FLAG fusion protein was detected with antibodies. […] For luminescence, ECL Western Blotting Kit (Amersham Pharmacia Biotech) was used. Chemiluminescence was detected with Hyperfilm ECL (Amersham Pharmacia Biotech). […] The fusion protein in cell fractions was detected as a polypeptide of approx. 9.2 kDa under reducing conditions and as a polypeptide of approx. 21 kDa under non-reducing conditions.

For series [2], the target named is B2. Put plainly: non-reducing versus reducing SDS-PAGE and anti-FLAG Western blot; disulfide-linked dimer of the uncleaved and cleaved forms. On the procedure:
as §1

Series [3] deals with the molecule itself. Nature of the series: non-reducing versus reducing SDS-PAGE and anti-FLAG Western blot; disulfide-linked dimer of the cleaved form. The procedure: as §1

In the case of B1, the binding result in series [1] and in series [2] was “binds” throughout.

B2: the binding result in series [3] is given as “binds”.
